The values below are quoted from earlier work in publication PMC6707866.

The target of this data set is Bag3 (Homo sapiens) (UniProt O95817).
Chain of UniProt O95817 (O95817 2-575): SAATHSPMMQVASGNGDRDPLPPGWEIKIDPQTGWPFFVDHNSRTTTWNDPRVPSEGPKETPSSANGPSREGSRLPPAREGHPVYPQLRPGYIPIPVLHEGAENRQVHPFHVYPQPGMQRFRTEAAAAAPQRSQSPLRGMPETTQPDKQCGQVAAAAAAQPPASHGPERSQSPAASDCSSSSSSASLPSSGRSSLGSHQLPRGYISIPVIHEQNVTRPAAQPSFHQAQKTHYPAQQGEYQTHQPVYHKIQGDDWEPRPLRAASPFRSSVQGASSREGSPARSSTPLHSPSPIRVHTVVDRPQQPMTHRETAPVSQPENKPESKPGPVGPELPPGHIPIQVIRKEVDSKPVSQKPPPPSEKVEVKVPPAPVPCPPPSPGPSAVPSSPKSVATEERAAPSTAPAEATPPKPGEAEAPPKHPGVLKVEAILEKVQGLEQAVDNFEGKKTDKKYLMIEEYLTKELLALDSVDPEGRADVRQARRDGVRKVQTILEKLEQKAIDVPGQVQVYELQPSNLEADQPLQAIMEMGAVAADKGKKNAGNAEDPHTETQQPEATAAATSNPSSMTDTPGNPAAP

Consider Hsp70 (from UniProt P0DMV8), for which the dissociation constant Kd was 25 nM.

Usually Kd stands for a measure of binding affinity in units of concentration.
